Experimental data as given in patent US6096512A, “Cloned DNA encoding a UDP-GalNAc: Polypeptide, N-acetylgalactosaminyltransferase” (Pharmacia & Upjohn Company, priority 1997, dated 2000).
“Also recorded” adds a separate entry of the source.

T1: bovine colostrum GalNAc-transferase (Bos taurus, UniProt Q07537)
T1 sequence (Q07537 41-559): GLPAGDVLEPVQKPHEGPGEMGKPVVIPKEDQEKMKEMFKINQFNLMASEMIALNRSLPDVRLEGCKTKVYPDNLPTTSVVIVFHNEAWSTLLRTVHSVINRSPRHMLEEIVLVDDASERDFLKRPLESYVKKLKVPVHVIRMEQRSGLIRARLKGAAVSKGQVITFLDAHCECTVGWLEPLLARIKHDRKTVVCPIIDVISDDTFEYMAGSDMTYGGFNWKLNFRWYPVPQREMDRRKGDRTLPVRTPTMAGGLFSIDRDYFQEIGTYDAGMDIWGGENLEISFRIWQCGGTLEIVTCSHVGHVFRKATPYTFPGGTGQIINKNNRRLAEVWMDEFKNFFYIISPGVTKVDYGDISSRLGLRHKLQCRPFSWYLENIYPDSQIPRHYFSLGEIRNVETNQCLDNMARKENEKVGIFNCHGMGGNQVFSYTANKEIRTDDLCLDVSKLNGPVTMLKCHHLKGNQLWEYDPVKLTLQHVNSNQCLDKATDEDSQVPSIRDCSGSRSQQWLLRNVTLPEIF


Tests used:
[1] = test system: GalNAc-transferase activity in Sf9 cells; assay: Expression of baculovirus isolates of soluble GalNAc-transferase in Sf9 cells, total activity; assay type: cell-based, Spodoptera frugiperda; settings: for Total activity, cell lysate / Total activity, culture medium: 65 hours post infection; for Total activity, cell lysate: 1X10^6 cells; for Total activity, culture medium: culture medium volume 5 ml
Protocol: GalNAcTs was routinely expressed in one liter batches. Approximately 1×10^9 cells in one liter Grace's serum-free insect medium (Insect Express) were infected with 5 pfu/cell of GalNAcTs-Mel. The infected cells were cultured in shaker flasks for 65 hours before harvest.
^a 1 unit equals one mole Nacetylgalactosamine transferred to apomuci
per minute, under assay conditions.
Cells (1X10^6) were infected with recombinant virus containing GalNAcTs-Mel (5 pfu/cell). The cells were harvestd 65 hours post infrction, lysed in a detergent containing buffer and the GalNac-transferase activity was determined in the cell lysates and the corresponding culture media; lysate and culture medium from uninfected cells were assayed as control. The numbers have been adjusted for differences in protein content in the cell lysates; the volume of the culture media was 5 ml.

[2] = biological target: T1, bovine colostrum GalNAc-transferase; assay: Transfer of N-acetylgalactosamine to protein acceptors by bovine colostrum GalNAc-transferase; assay type: biochemical; settings: for Product formed, native acceptor / Product formed, reduced and carboxymethylated acceptor: acceptor 65 μM, enzyme approximately 65 mU/ml, 60 minutes; for Product formed, reduced and carboxymethylated acceptor: myelin basic protein was not reduced and carboxymethylated; for acceptor activity in words: native or reduced and carboxymethylated
Protocol: (§1) The standard assay for UDP-GalNAc:polypeptide, N-acetylgalactosaminyltransferase activity during purification contained the following components in a final volume of 80 μl: 50 mM Imidazole pH 7.2, 10 mM MnCl2, 0.5% Triton X-100, 15 μM UDP-GalNAc, UDP[1-^3 H-] GalNAc (27,000 cpm/assay), 0.15 mg/ml apomucin and varying amounts of enzyme (see individual experiments). The reaction mixture is incubated at 37° C. for 5-10 minutes (see individual experiments) and the reaction product is TCA precipitated and radioactivity measured as described. Assays for activity in lysates from Spodoptera frugiperda cell line 9 (hereinafter referred to as Sf9 cells) are carried out as described by Thomsen et al., (1990).
The above conclusions and the predictions of the specificity algorithm are validated experimentally by studying the ability of bovine colostrum GalNAc-transferase to transfer N-acetylgalactosamine to a variety of acceptors, both native proteins and synthetic acceptor peptides. The transfer of N-acetylgalactosamine to protein acceptors is assayed as described by Elhammer and Kornfeld, 1986, with minor modifications. The concentration of UDP-GalNAc is saturating in all assays; a Km of 8 μM is reported for bovine colostrum GalNAc-transferase (Elhammer and Kornfeld, 1986).
The transfer of N-acetylgalactosamine to protein acceptors was assayed
under standard conditions (see Material and Methods). The acceptor
concentration was 65 μM, the enzyme concentration approximately
65 mU/ml and assay time was 60 minutes. The transfer to both native and
reduced-carboxymethylated acceptors was assayed.

[3] = test system: GalNAc-transferase activity in Sf9 cells; assay: Expression of baculovirus isolates of the GalNAc-transferase in Sf9 cells, GalNAcT activity; assay type: cell-based, Spodoptera frugiperda; settings: for Specific activity: Sf9 cell lysates, 48 hours post infection; for Relative rate: relative to uninfected cells
Protocol: as §1
The putative GalNAcT coding region, pCR1000-91B, is digested with SstII and HindIII (both enzymes cut only in pCR1000 sequences that flank the insert; FIG. 2C) and these sites are blunted using T4 DNA polymerase so that it can be cloned into a baculovirus expression vector. BamHI linkers are then ligated onto the blunted ends and the resulting sample is ligated into the BamHI site of the baculovirus expression vector pAC373 (Summers and Smith, 1986). The resulting isolates are screened for proper orientation of the GalNAcT open reading frame with respect to the baculovirus polyhedron promoter, to yield pAC373-GalNAcT. Cotransfection of Sf9 cells with pAC373-GaINAcT and linearized baculovirus DNA from PharMingen's baculoGold transfection kit is performed using calcium phosphate precipitation (Summers & Smith, 1986). The baculovirus DNA provided in the PharMingen transfection kit contains a lethal mutation that can be corrected by homologous recombination with sequences contained in the pAC373 vector. Therefore, following transfection, only recombinant viruses will grow on Sf9 cells. Transfections are done in duplicate and the resulting virus samples are referred to as GalNAcT 2-1A and GaINAcT 2-1B. Cells are harvested 48 hours post infection and lysed in a detergent containing buffer. Following sedimentation of undissolved material, the cleared lysates are assayed for GalNAcT activity. Lysates from uninfected cells or from cells infected with either a baculovirus containing an unrelated gene, CMV-POL (human cytomegalovirus DNA polymerase gene), or two separate baculovirus isolates of the GaINAcT gene, GalNAcT 2-1A and GaINAcT 2-1B, are assayed.

Molecule | Total activity, cell lysate [1] [U] | Total activity, culture medium [1] [U] | Product formed, native acceptor [2] [nmol/min/mg] | Product formed, reduced and carboxymethylated acceptor [2] [nmol/min/mg] | Specific activity [3] [Units/mg protein] | Relative rate [3] | further results
GalNAcT-Mel: recombinant baculovirus that expresses a secreted form of GalNAc-transferase with honeybee melittin signal peptide (protein) DPSPALEPVQKPHEGPGEMGKPVVIPKEDQEKMKEMFKINQFNLMASEMIALNRSLPDVRLEGCKTKVYPDNLPTTSVVIVFHNEAWSTLLRTVHSVINRSPRHMLEEIVLVDDASERDFLKRPLESYVKKLKVPVHVIRMEQRSGLIRARLKGAAVSKGQVITFLDAHCECTVGWLEPLLARIKHDRKTVVCPIIDVISDDTFEYMAGSDMTYGGFNWKLNFRWYPVPQREMDRRKGDRTLPVRTPTMAGGLFSIDRDYFQEIGTYDAGMDIWGGENLEISFRIWQCGGTLEIVTCSHVGHVFRKATPYTFPGGTGQIINKNNRRLAEVWMDEFKNFFYIISPGVTKVDYGDISSRLGLRHKLQCRPFSWYLENIYPDSQIPRHYFSLGEIRNVETNQCLDNMARKENEKVGIFNCHGMGGNQVFSYTANKEIRTDDLCLDVSKLNGPVTMLKCHHLKGNQLWEYDPVKLTLQHVNSNQCLDKATDEDSQVPSIRDCSGSRSQQWLLRNVTLPEIF | 32.15 | 57.80 |  |  |  |  | portion of total enzymatic activity retained inside the cells [1]: 36%; activity in medium relative to cells expressing the full length molecule ([1]; culture medium): more than 35 times; increase in GalNAc-transferase activity in the culture medium ([1]; vs uninfected cells): 130 fold
Bovine rhodanese: cytoplasmic protein containing three strong predicted glycosylation sites (protein) VHQVLYRALVSTKWLAESVRAGKVGPGLRVLDASWYSPGTREARKEYLERHVPGASFFDIEECRDKASPYEVMLPSEAGFADYVGSLGISNDTHVVVYDGDDLGSFYAPRVWWMFRVFGHRTVSVLNGGFRNWLKEGHPVTSEPSRPEPAIFKATLNRSLLKTYEQVLENLESKRFQLVDSRAQGRYLGTQPEPDAVGLDSGHIRGSVNMPFMNFLTEDGFEKSPEELRAMFEAKKVDLTKPLIATCRKGVTACHIALAAYLCGKPDVAIYDGSWFEWFHRAPPETWVSQGKGGKA |  |  | < 0.1 | 3.3 |  |  | acceptor activity in words ([2]; listed as bovine rhodanese): neither of them reacts unless reduced and carboxymethylated; acceptor activity in words ([2]; listed as rhodanese): neither subtilisin nor rhodanese showed any acceptor activity without prior reduction and carboxymethylation
Subtilisin: bacterial protein produced by a microbial system incapable of O-linked oligosaccharide biosynthesis (protein, UniProt P00782 108-382, looked up) Subtilisin BPN': AQSVPYGVSQIKAPALHSQGYTGSNVKVAVIDSGIDSSHPDLKVAGGASMVPSETNPFQDNNSHGTHVAGTVAALNNSIGVLGVAPSASLYAVKVLGADGSGQYSWIINGIEWAIANNMDVINMSLGGPSGSAALKAAVDKAVASGVVVVAAAGNEGTSGSSSTVGYPGKYPSVIAVGAVDSSNQRASFSSVGPELDVMAPGVSIQSTLPGNKYGAYNGTSMASPHVAGAAALILSKHPNWTNTQVRSSLENTTTKLGDSFYYGKGLINVQAAAQ |  |  | < 0.1 | 0.6 |  |  | transfer rate slower than to myelin basic protein ([2]; denatured subtilisin vs myelin basic protein): 35 times; acceptor activity in words [2]: neither of them reacts unless reduced and carboxymethylated; also recorded: neither subtilisin nor rhodanese showed any acceptor activity without prior reduction and carboxymethylation
GalNAcT 2-1.A: baculovirus isolate of the full length GalNAc-transferase gene (pAC373-GalNAcT) expressed in Sf9 cells (protein) MRKFAYCKVVLATSLIWVLLDMFLLLYFSECNKCDEKKERGLPAGDVLEPVQKPHEGPGEMGKPVVIPKEDQEKMKEMFKINQFNLMASEMIALNRSLPDVRLEGCKTKVYPDNLPTTSVVIVFHNEAWSTLLRTVHSVINRSPRHMLEEIVLVDDASERDFLKRPLESYVKKLKVPVHVIRMEQRSGLIRARLKGAAVSKGQVITFLDAHCECTVGWLEPLLARIKHDRKTVVCPIIDVISDDTFEYMAGSDMTYGGFNWKLNFRWYPVPQREMDRRKGDRTLPVRTPTMAGGLFSIDRDYFQEIGTYDAGMDIWGGENLEISFRIWQCGGTLEIVTCSHVGHVFRKATPYTFPGGTGQIINKNNRRLAEVWMDEFKNFFYIISPGVTKVDYGDISSRLGLRHKLQCRPFSWYLENIYPDSQIPRHYFSLGEIRNVETNQCLDNMARKENEKVGIFNCHGMGGNQVFSYTANKEIRTDDLCLDVSKLNGPVTMLKCHHLKGNQLWEYDPVKLTLQHVNSNQCLDKATDEDSQVPSIRDCSGSRSQQWLLRNVTLPEIF | 16.22 | 1.61 |  |  | 13.9 | 87 | 
GalNAcT 2-1.B: baculovirus isolate of the full length GalNAc-transferase gene (pAC373-GalNAcT) expressed in Sf9 cells (protein) MRKFAYCKVVLATSLIWVLLDMFLLLYFSECNKCDEKKERGLPAGDVLEPVQKPHEGPGEMGKPVVIPKEDQEKMKEMFKINQFNLMASEMIALNRSLPDVRLEGCKTKVYPDNLPTTSVVIVFHNEAWSTLLRTVHSVINRSPRHMLEEIVLVDDASERDFLKRPLESYVKKLKVPVHVIRMEQRSGLIRARLKGAAVSKGQVITFLDAHCECTVGWLEPLLARIKHDRKTVVCPIIDVISDDTFEYMAGSDMTYGGFNWKLNFRWYPVPQREMDRRKGDRTLPVRTPTMAGGLFSIDRDYFQEIGTYDAGMDIWGGENLEISFRIWQCGGTLEIVTCSHVGHVFRKATPYTFPGGTGQIINKNNRRLAEVWMDEFKNFFYIISPGVTKVDYGDISSRLGLRHKLQCRPFSWYLENIYPDSQIPRHYFSLGEIRNVETNQCLDNMARKENEKVGIFNCHGMGGNQVFSYTANKEIRTDDLCLDVSKLNGPVTMLKCHHLKGNQLWEYDPVKLTLQHVNSNQCLDKATDEDSQVPSIRDCSGSRSQQWLLRNVTLPEIF |  |  |  |  | 11.9 | 74 | 
